{"source": "paper PMC11094360", "about": "“Systematic characterization of gene families and functional analysis of PvRAS3 and PvRAS4 involved in rosmarinic acid biosynthesis in Prunella vulgaris” (Frontiers in Plant Science, 2024)", "key": {"PvRAS4 [1]": {"system": "PvRAS4", "experiment": "UPLC of acceptor consumption, nonlinear regression", "type": "biochemical, Prunella vulgaris", "conditions": "varied acyl acceptor, 2 mM p-coumaroyl-CoA; 100 mM Tris-HCl pH 7.0, 2 mM DTT, 4 mM MgCl2, 10% glycerol, 25 °C", "description": "UPLC of acceptor consumption, nonlinear regression on PvRAS4"}, "PvRAS4 [2]": {"system": "PvRAS4", "experiment": "UPLC of product formation, nonlinear regression", "type": "biochemical, Prunella vulgaris", "conditions": "varied acyl donor, 2 mM DHPL; 100 mM Tris-HCl pH 7.0, 2 mM DTT, 4 mM MgCl2, 10% glycerol, 25 °C", "description": "UPLC of product formation, nonlinear regression on PvRAS4"}, "[3]": {"substrate": "CC(C)(COP(=O)(O)OP(=O)(O)OC[C@H]1O[C@@H](n2cnc3c(N)ncnc32)[C@H](O)[C@@H]1OP(=O)(O)O)[C@@H](O)C(=O)NCCC(=O)NCCSC(=O)/C=C/c1ccc(O)cc1", "experiment": "UPLC of product formation, nonlinear regression", "type": "biochemical, Prunella vulgaris", "conditions": "varied acyl donor, 2 mM pHPL, 100 mM Tris-HCl pH 7.0, 2 mM DTT, 4 mM MgCl2, 10% glycerol, 25 °C"}, "[4]": {"substrate": "CC(C)(COP(=O)(O)OP(=O)(O)OC[C@H]1O[C@@H](n2cnc3c(N)ncnc32)[C@H](O)[C@@H]1OP(=O)(O)O)[C@@H](O)C(=O)NCCC(=O)NCCSC(=O)/C=C/c1ccc(O)c(O)c1", "experiment": "UPLC of product formation, nonlinear regression", "type": "biochemical, Prunella vulgaris", "conditions": "varied acyl donor, 2 mM DHPL, 100 mM Tris-HCl pH 7.0, 2 mM DTT, 4 mM MgCl2, 10% glycerol, 25 °C"}, "purified protein": {"substrate": "O=C(O)[C@H](O)Cc1ccc(O)c(O)c1", "experiment": "purified protein", "conditions": "varied acyl acceptor, 2 mM p-coumaroyl-CoA, 100 mM Tris-HCl pH 7.0, 2 mM DTT, 4 mM MgCl2, 10% glycerol, 25 °C"}, "[5]": {"substrate": "O=C(O)C(O)Cc1ccc(O)cc1", "experiment": "UPLC of acceptor consumption, nonlinear regression", "type": "biochemical, Prunella vulgaris", "conditions": "varied acyl acceptor, 2 mM p-coumaroyl-CoA, 100 mM Tris-HCl pH 7.0, 2 mM DTT, 4 mM MgCl2, 10% glycerol, 25 °C", "source_text": "UPLC of acceptor consumption, nonlinear regression on PvRAS3"}}, "data": [{"molecule": "O=C(O)[C@H](O)Cc1ccc(O)c(O)c1", "note": "[DHPL]", "values": [{"measurement": "Km", "setting": "PvRAS4 [1]", "result": "227 ± 17.5", "unit": "µM"}]}, {"molecule": "CC(C)(COP(=O)(O)OP(=O)(O)OC[C@H]1O[C@@H](n2cnc3c(N)ncnc32)[C@H](O)[C@@H]1OP(=O)(O)O)[C@@H](O)C(=O)NCCC(=O)NCCSC(=O)/C=C/c1ccc(O)cc1", "note": "[p-coumaroyl-CoA]", "values": [{"measurement": "Km", "setting": "PvRAS4 [2]", "result": "218 ± 10.3", "unit": "µM"}]}, {"molecule": "O=C(O)C(O)Cc1ccc(O)cc1", "note": "(stereo not shown) [pHPL]", "values": [{"measurement": "Km", "setting": "PvRAS4 [1]", "result": "228 ± 16.6", "unit": "µM"}]}, {"molecule": "PvRAS3 (Prunella vulgaris) (protein) MKIEVKESTMVKPAAETPTGGLWISNLDLLSPANYHTLSVHFYRHDGSDNFFEAAPLKEALSRALVEFYPYAGRLKLNGKRLEIDCNGEGLLLVEAESDGTLEELGDFAPRPDLNLIPKVDYSKGISSYPLMLFQITRFKCGGVGLGVANEHHLSDGVSALHFINTWCHLARGVPAPSPAPVFDRTALSARSPPKVEFTHPEFQPPPTLPTPLEHTDIAYAKLKLSRDQLNALKAKCKSPATANGQENGKPARPYSTFEVLAGHIWRCVCAARGLPAEQETKLHIPFDGRAKLQLPAGFFGNAIFFATPIATCGEVEANSLSYAVRRVGDAIGRLDEEYLRSSVDFLELQDDISKLAQGAHSFRCPNLWVISWVRLPIYEPDFGWGKAVYMGPWAAPFEGKSYLLPNPDNDGSLFVAITLHTQHMDRFQNFFYDI", "values": [{"measurement": "Km", "setting": "[3]", "result": "30.6 ± 1.2", "unit": "µM"}, {"measurement": "Vmax", "setting": "[3]", "result": 18.7, "unit": "µmol/min/mg"}, {"measurement": "kcat", "setting": "[3]", "result": "34.3 ± 2.2", "unit": "s⁻¹"}, {"measurement": "kcat/Km", "setting": "[3]", "result": "1.1e+06", "unit": "M⁻¹ s⁻¹"}, {"measurement": "Km", "setting": "[4]", "result": "173.2 ± 9.0", "unit": "µM"}, {"measurement": "Vmax", "setting": "[4]", "result": 9.95, "unit": "µmol/min/mg"}, {"measurement": "kcat", "setting": "[4]", "result": "14.1 ± 1", "unit": "s⁻¹"}, {"measurement": "kcat/Km", "setting": "[4]", "result": 80000, "unit": "M⁻¹ s⁻¹"}, {"measurement": "Km", "setting": "purified protein", "result": "41.7 ± 1.2", "unit": "µM"}, {"measurement": "Vmax", "setting": "purified protein", "result": 18.2, "unit": "µmol/min/mg"}, {"measurement": "kcat", "setting": "purified protein", "result": 30.5, "unit": "s⁻¹"}, {"measurement": "kcat/Km", "setting": "purified protein", "result": 700000, "unit": "M⁻¹ s⁻¹"}, {"measurement": "Km", "setting": "[5]", "result": "32.1 ± 0.7", "unit": "µM"}, {"measurement": "Vmax", "setting": "[5]", "result": 19.4, "unit": "µmol/min/mg"}, {"measurement": "kcat", "setting": "[5]", "result": "33.3 ± 2.3", "unit": "s⁻¹"}, {"measurement": "kcat/Km", "setting": "[5]", "result": "1e+06", "unit": "M⁻¹ s⁻¹"}]}]}
